In test [1] the target is T1, DAXX helical bundle (DHB) domain, DAXX_(55–144) (UniProt Q9UER7 55-144).
T1 chain: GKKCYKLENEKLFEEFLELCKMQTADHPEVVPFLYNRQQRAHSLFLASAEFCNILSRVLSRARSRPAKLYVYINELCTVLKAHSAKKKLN
As to the kind of experiment: ITC. (In general: Isothermal titration calorimetry measures the heat released or taken up as one component is titrated into another.)

Test [2] deals with DAXX helical bundle (DHB) domain, DAXX_(55–144) (UniProt Q9UER7). Description: ITC; isothermal titration calorimetry of ATRX fragments with DAXXDHB; conditions not shown (methods in the supplement).
For the next test, the target named is T2, ATRX_(1,188–1,326) (UniProt P46100 1188-1326).
T2 construct: Alpha-thalassemia/mental retardation syndrome X-linked protein (ATRX), residues 1188-1326
T2 sequence (looked up): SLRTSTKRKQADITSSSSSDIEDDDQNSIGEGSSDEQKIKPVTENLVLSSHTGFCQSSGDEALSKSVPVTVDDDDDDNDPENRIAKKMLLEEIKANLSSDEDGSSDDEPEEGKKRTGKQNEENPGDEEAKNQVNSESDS
The description is as above. Conditions: both partners purified.

Test [3] has as its target T1, DAXX helical bundle (DHB) domain, …. As to the kind of experiment: ITC.
The target in a further test is T3, DAXX Y124A (Homo sapiens).
T3 chain: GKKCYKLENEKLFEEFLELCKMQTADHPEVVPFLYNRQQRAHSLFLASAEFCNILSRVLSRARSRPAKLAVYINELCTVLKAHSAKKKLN
As to the kind of experiment: ITC.

The next test addresses T4, DAXX V125A (Homo sapiens).
T4 chain: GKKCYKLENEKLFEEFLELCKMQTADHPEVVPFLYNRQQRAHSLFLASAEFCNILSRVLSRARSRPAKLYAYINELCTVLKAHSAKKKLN
Description: ITC.

A further test addresses T5, DAXX V84A (Homo sapiens).
T5 chain: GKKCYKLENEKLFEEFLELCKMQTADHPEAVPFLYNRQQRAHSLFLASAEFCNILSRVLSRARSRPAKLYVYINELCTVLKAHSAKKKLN
Description: ITC.

For the next test, the target named is T6, DAXX I127A (Homo sapiens).
T6 chain: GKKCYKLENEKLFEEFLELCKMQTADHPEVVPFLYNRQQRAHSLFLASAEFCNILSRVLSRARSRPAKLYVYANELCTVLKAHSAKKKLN
As to the kind of experiment: ITC.

Another test deals with T7, DAXX F87A (Homo sapiens).
T7 chain: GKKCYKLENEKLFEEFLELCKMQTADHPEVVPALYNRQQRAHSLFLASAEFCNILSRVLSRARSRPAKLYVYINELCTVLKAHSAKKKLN
Description: ITC.

Drawing on article PMC5636753, “Structural basis for DAXX interaction with ATRX” (Protein & Cell, 2017), this text covers Kd and fold decrease in affinity against ATRXDBM for 15 molecules.

Read-outs that look alike come from different tables or passages of the source.

B1: ATRX 1,260–1,289 M1 (D1260A/D1261A/D1262A/D1263A/D1264A) (peptide)
chain: AAAAANDPENRIAKKMLLEEIKANLSSDED
What is called Kd is the concentration at which binding is half-saturated. Read a high Kd as lower affinity. For the molecule B1, the Kd in test [1] is 850 nM.

B2: ATRXDBM with deletion of N-terminal eight residues (domain or fragment)
chain: ENRIAKKMLLEEIKANLSSDED
For B2, in test [2], the fold decrease in affinity against ATRXDBM was 60 fold. In test [1], this molecule had a Kd of 10300 nM.

B3: DAXX helical bundle (DHB) domain, DAXX_(55–144) (domain or fragment, UniProt Q9UER7 55-144, looked up)
chain: GKKCYKLENEKLFEEFLELCKMQTADHPEVVPFLYNRQQRAHSLFLASAEFCNILSRVLSRARSRPAKLYVYINELCTVLKAHSAKKKLN
notes: death-domain associated protein (DAXX), N-terminal DAXX helical bundle (DHB) domain; model of the crystal covers residues 57-141; Limits 55-144 are printed for the mutagenesis panel; Crystals were selenomethionine-substituted; also called DAXXDHB; DAXX DHB
In the case of B3, in the test with ATRX_(1,188–1,326), binding was characterised by a dissociation constant (Kd) of 160 nM.

B4: ATRX_(1,253–1,326) (domain or fragment)
chain: SVPVTVDDDDDDNDPENRIAKKMLLEEIKANLSSDEDGSSDDEPEEGKKRTGKQNEENPGDEEAKNQVNSESDS
Regarding B4, the dissociation constant (Kd) in test [3] was 170 nM; with DAXX Y124A it was 5920 nM; in the test with DAXX V125A, 280 nM; in [1] it was 160 nM; in the test with DAXX V84A, 2040 nM; with DAXX I127A, 810 nM. The molecule also had a Kd with DAXX F87A of 2190 nM.

B5: ATRX A1272R (protein)
chain: SVPVTVDDDDDDNDPENRIRKKMLLEEIKANLSSDEDGSSDDEPEEGKKRTGKQNEENPGDEEAKNQVNSESDS
On to B5, for which the Kd in [1] is 1040 nM.

B6: ATRX L1277R (protein)
chain: SVPVTVDDDDDDNDPENRIAKKMLREEIKANLSSDEDGSSDDEPEEGKKRTGKQNEENPGDEEAKNQVNSESDS
As to B6, the dissociation constant Kd in [1] is 970 nM.

B7: ATRX L1276R (protein)
chain: SVPVTVDDDDDDNDPENRIAKKMRLEEIKANLSSDEDGSSDDEPEEGKKRTGKQNEENPGDEEAKNQVNSESDS
B7 had a dissociation constant (Kd) in [1] of 73500 nM.

B8: ATRX L1276A (protein)
chain: SVPVTVDDDDDDNDPENRIAKKMALEEIKANLSSDEDGSSDDEPEEGKKRTGKQNEENPGDEEAKNQVNSESDS
B8 returned a dissociation constant Kd in test [1] of 8330 nM.

B9: ATRX I1280A (protein)
chain: SVPVTVDDDDDDNDPENRIAKKMLLEEAKANLSSDEDGSSDDEPEEGKKRTGKQNEENPGDEEAKNQVNSESDS
In the case of B9, binding in test [1] was characterised by a dissociation constant (Kd) of 400 nM.

B10: ATRX I1280R (protein)
chain: SVPVTVDDDDDDNDPENRIAKKMLLEERKANLSSDEDGSSDDEPEEGKKRTGKQNEENPGDEEAKNQVNSESDS
B10 came in with a Kd in test [1] of 34800 nM.

B11: ATRX I1280Q (protein)
chain: SVPVTVDDDDDDNDPENRIAKKMLLEEQKANLSSDEDGSSDDEPEEGKKRTGKQNEENPGDEEAKNQVNSESDS
For the molecule B11, in [1], the Kd is 7350 nM.

B12: ATRX L1276A/I1280A (protein)
chain: SVPVTVDDDDDDNDPENRIAKKMALEEAKANLSSDEDGSSDDEPEEGKKRTGKQNEENPGDEEAKNQVNSESDS
On to B12, for which, in test [1], the Kd came out at 12000 nM.

B13: ATRX L1276Q (protein)
chain: SVPVTVDDDDDDNDPENRIAKKMQLEEIKANLSSDEDGSSDDEPEEGKKRTGKQNEENPGDEEAKNQVNSESDS
The molecule B13 came in with a dissociation constant Kd in [1] of 43300 nM.

B14: DAXX-binding motif of ATRX, ATRX_(1,260–1,289) (domain or fragment)
chain: DDDDDNDPENRIAKKMLLEEIKANLSSDED
In the case of B14, the affinity in test [1], expressed as Kd, was 160 nM.

B15: ATRX 1,260–1,289 M2 (D1266A/E1268A) (peptide)
chain: DDDDDNAPANRIAKKMLLEEIKANLSSDED
The molecule B15 showed a Kd in test [1] of 1750 nM.
